According to IntAct's records for PubMed 31515488:

B1: Ribosome quality control complex subunit TCF25 (Homo sapiens), Q9BQ70 (parent)
chain: MSRRALRRLRGEQRGQEPLGPGALHFDLRDDDDAEEEGPKRELGVRRPGGAGKEGVRVNNRFELINIDDLEDDPVVNGERSGCALTDAVAPGNKGRGQRGNTESKTDGDDTETVPSEQSHASGKLRKKKKKQKNKKSSTGEASENGLEDIDRILERIEDSTGLNRPGPAPLSSRKHVLYVEHRHLNPDTELKRYFGARAILGEQRPRQRQRVYPKCTWLTTPKSTWPRYSKPGLSMRLLESKKGLSFFAFEHSEEYQQAQHKFLVAVESMEPNNIVVLLQTSPYHVDSLLQLSDACRFQEDQEMARDLVERALYSMECAFHPLFSLTSGACRLDYRRPENRSFYLALYKQMSFLEKRGCPRTALEYCKLILSLEPDEDPLCMLLLIDHLALRARNYEYLIRLFQEWEAHRNLSQLPNFAFSVPLAYFLLSQQTDLPECEQSSARQKASLLIQQALTMFPGVLLPLLESCSVRPDASVSSHRFFGPNAEISQPPALSQLVNLYLGRSHFLWKEPATMSWLEENVHEVLQAVDAGDPAVEACENRRKVLYQRAPRNIHRHVILSEIKEAVAALPPDVTTQSVMGFDPLPPSDTIYSYVRPERLSPISHGNTIALFFRSLLPNYTMEGERPEEGVAGGLNRNQGLNRLMLAVRDMMANFHLNDLEAPHEDDAEGEGEWD
partner: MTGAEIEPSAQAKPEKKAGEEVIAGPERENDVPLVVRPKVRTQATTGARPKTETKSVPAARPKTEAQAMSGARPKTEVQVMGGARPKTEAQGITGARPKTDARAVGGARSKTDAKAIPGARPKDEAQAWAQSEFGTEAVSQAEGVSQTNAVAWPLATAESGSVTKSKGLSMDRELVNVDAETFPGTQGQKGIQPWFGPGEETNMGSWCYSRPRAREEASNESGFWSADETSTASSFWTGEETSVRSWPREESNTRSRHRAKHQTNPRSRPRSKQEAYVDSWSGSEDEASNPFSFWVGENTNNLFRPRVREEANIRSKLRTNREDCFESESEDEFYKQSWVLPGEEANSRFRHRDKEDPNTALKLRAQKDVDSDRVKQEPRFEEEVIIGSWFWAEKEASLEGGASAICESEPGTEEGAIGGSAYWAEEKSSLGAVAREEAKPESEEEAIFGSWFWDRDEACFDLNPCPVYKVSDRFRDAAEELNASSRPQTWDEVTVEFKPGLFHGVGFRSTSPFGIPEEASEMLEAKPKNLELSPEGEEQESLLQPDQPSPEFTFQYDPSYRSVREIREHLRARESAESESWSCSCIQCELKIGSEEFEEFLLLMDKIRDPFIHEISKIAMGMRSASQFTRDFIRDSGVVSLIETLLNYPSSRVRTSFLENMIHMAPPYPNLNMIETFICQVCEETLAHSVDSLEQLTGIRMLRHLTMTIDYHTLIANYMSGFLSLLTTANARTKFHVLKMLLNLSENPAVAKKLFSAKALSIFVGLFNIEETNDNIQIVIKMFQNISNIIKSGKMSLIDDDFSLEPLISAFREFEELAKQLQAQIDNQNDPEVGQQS
B2: Protein FAM9B (Homo sapiens), Q8IZU0 (parent)
chain: MAAWGKKHAGKDPVRDECEERNRFTETREEDVTDEHGEREPFAETDEHTGANTKKPEDTAEDLTAKRKRMKMDKTCSKTKNKSKHALRKKQLKRQKRDYIHSLKLLNVLEEYITDEQKEEEEEEGEEEELIRIFQEQQKKWQQYRSVRRERLKEMKLLRDQFVKALEDFEDLCDRVFSDEDSELDN
partner: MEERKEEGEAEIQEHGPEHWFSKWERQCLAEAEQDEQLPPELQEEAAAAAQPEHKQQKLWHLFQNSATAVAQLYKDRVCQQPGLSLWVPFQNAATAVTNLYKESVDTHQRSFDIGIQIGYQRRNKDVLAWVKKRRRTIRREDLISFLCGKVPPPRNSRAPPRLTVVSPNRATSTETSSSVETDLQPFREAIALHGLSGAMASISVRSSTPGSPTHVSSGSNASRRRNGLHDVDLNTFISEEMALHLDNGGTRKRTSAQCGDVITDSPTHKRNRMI
B3: Serine/threonine-protein kinase PAK 5 (Homo sapiens), Q9P286 (parent)
chain: MFGKKKKKIEISGPSNFEHRVHTGFDPQEQKFTGLPQQWHSLLADTANRPKPMVDPSCITPIQLAPMKTIVRGNKPCKETSINGLLEDFDNISVTRSNSLRKESPPTPDQGASSHGPGHAEENGFITFSQYSSESDTTADYTTEKYREKSLYGDDLDPYYRGSHAAKQNGHVMKMKHGEAYYSEVKPLKSDFARFSADYHSHLDSLSKPSEYSDLKWEYQRASSSSPLDYSFQFTPSRTAGTSGCSKESLAYSESEWGPSLDDYDRRPKSSYLNQTSPQPTMRQRSRSGSGLQEPMMPFGASAFKTHPQGHSYNSYTYPRLSEPTMCIPKVDYDRAQMVLSPPLSGSDTYPRGPAKLPQSQSKSGYSSSSHQYPSGYHKATLYHHPSLQSSSQYISTASYLSSLSLSSSTYPPPSWGSSSDQQPSRVSHEQFRAALQLVVSPGDPREYLANFIKIGEGSTGIVCIATEKHTGKQVAVKKMDLRKQQRRELLFNEVVIMRDYHHDNVVDMYSSYLVGDELWVVMEFLEGGALTDIVTHTRMNEEQIATVCLSVLRALSYLHNQGVIHRDIKSDSILLTSDGRIKLSDFGFCAQVSKEVPKRKSLVGTPYWMAPEVISRLPYGTEVDIWSLGIMVIEMIDGEPPYFNEPPLQAMRRIRDSLPPRVKDLHKVSSVLRGFLDLMLVREPSQRATAQELLGHPFLKLAGPPSCIVPLMRQYRHH
partner: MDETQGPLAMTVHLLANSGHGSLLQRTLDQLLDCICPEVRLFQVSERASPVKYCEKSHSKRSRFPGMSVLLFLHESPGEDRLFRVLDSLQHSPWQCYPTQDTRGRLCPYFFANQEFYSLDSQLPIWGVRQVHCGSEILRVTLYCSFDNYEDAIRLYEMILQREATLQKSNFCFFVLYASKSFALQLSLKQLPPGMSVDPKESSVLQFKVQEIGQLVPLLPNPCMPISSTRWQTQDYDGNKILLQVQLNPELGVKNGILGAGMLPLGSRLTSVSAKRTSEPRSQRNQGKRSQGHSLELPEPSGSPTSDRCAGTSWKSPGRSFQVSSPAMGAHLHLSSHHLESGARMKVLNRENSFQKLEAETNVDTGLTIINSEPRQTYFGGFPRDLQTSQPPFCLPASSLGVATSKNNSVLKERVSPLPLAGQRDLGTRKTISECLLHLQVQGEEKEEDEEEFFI
B4: Phagosome assembly factor 1 (Homo sapiens), Q9BSU1 (parent)
chain: MLDLEVVPERSLGNEQWEFTLGMPLAQAVAILQKHCRIIKNVQVLYSEQSPLSHDLILNLTQDGIKLMFDAFNQRLKVIEVCDLTKVKLKYCGVHFNSQAIAPTIEQIDQSFGATHPGVYNSAEQLFHLNFRGLSFSFQLDSWTEAPKYEPNFAHGLASLQIPHGATVKRMYIYSGNSLQDTKAPMMPLSCFLGNVYAESVDVLRDGTGPAGLRLRLLAAGCGPGLLADAKMRVFERSVYFGDSCQDVLSMLGSPHKVFYKSEDKMKIHSPSPHKQVPSKCNDYFFNYFTLGVDILFDANTHKVKKFVLHTNYPGHYNFNIYHRCEFKIPLAIKKENADGQTETCTTYSKWDNIQELLGHPVEKPVVLHRSSSPNNTNPFGSTFCFGLQRMIFEVMQNNHIASVTLYGPPRPGSHLRTAELP
B5: Chondroitin sulfate N-acetylgalactosaminyltransferase 2 (Homo sapiens), Q8N6G5 (parent)
chain: MPRRGLILHTRTHWLLLGLALLCSLVLFMYLLECAPQTDGNASLPGVVGENYGKEYYQALLQEQEEHYQTRATSLKRQIAQLKQELQEMSEKMRSLQERRNVGANGIGYQSNKEQAPSDLLEFLHSQIDKAEVSIGAKLPSEYGVIPFESFTLMKVFQLEMGLTRHPEEKPVRKDKRDELVEVIEAGLEVINNPDEDDEQEDEEGPLGEKLIFNENDFVEGYYRTERDKGTQYELFFKKADLTEYRHVTLFRPFGPLMKVKSEMIDITRSIINIIVPLAERTEAFVQFMQNFRDVCIHQDKKIHLTVVYFGKEGLSKVKSILESVTSESNFHNYTLVSLNEEFNRGRGLNVGARAWDKGEVLMFFCDVDIYFSAEFLNSCRLNAEPGKKVFYPVVFSLYNPAIVYANQEVPPPVEQQLVHKKDSGFWRDFGFGMTCQYRSDFLTIGGFDMEVKGWGGEDVHLYRKYLHGDLIVIRTPVPGLFHLWHEKRCADELTPEQYRMCIQSKAMNEASHSHLGMLVFREEIETHLHKQAYRTNSEAVG

Variants of: B1
Settings: with gasp2_human GPRASP2, Q96D09

effect of a mutation on the interaction | Variant
with no effect | V526A

Variants of: B2
Settings: with hapr1_human HAPSTR1, Q14CZ0

effect of a mutation on the interaction | Variant
with no effect | R23H

Variants of: B3
Settings: with FAM124B

effect of a mutation on the interaction | Variant
with no effect | R335P

Variants of: B4
Settings: with bcas3_human BCAS3, Q9H6U6
bcas3_human BCAS3, Q9H6U6, sequence (Q9H6U6 whole entry): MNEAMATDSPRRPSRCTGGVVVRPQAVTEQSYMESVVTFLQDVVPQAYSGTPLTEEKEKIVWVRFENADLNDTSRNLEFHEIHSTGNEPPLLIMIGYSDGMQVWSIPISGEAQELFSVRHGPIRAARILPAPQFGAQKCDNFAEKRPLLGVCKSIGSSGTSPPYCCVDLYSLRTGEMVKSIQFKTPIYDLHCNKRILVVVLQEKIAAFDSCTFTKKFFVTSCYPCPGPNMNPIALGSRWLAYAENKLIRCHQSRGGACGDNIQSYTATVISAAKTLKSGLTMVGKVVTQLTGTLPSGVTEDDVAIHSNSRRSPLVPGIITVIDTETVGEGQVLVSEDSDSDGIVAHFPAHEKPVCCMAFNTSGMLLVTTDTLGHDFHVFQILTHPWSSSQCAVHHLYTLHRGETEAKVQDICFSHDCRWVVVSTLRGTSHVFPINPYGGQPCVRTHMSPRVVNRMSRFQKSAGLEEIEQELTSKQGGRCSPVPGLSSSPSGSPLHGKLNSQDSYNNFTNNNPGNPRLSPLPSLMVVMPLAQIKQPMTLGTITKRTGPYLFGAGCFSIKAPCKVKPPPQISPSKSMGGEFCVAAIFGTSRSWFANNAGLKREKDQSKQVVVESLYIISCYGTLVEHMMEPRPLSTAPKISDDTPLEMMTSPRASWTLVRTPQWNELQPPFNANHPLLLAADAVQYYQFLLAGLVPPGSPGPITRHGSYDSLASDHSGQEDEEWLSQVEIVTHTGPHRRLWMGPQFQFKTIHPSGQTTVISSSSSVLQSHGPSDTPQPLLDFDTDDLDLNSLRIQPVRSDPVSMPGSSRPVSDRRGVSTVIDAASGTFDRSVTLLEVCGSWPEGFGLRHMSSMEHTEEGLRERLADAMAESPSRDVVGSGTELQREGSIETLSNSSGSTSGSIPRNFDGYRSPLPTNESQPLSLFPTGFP

effect of a mutation on the interaction | Variant
with no effect | G13R

Variants of: B5
Settings: with BCL2L13, Q9BXK5
BCL2L13, Q9BXK5, sequence (Q9BXK5 whole entry): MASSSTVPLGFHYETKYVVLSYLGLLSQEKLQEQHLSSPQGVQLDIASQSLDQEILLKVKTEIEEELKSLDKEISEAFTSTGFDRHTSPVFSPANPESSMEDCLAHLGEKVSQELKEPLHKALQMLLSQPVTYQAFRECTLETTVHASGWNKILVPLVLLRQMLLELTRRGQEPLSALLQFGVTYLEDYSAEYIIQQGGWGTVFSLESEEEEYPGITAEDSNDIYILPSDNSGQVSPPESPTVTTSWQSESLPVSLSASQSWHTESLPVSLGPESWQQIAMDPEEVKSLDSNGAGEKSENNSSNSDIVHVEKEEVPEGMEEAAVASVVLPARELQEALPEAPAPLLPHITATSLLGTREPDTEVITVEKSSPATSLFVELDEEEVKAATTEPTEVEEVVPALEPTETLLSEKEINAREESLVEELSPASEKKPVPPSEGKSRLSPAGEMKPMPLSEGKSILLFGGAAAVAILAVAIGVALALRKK

effect of a mutation on the interaction | Variant
with no effect | P479S
